According to patent US20190134153A1, “IMMUNOMODULATORY EFFECT OF INHALED KINASE INHIBITOR PEPTIDES IN LUNG” (MOERAE MATRIX, INC., priority 2017, published 2019):

Legend:
Assay in all cases: Kinase Profiling Assay
Assay type in all cases: biochemical
Details in all cases: 100 μM
cKit(h) = cKit(h) (Homo sapiens, UniProt P10721)
IKKβ(h) = molecular target: T1, IKKβ(h) (Homo sapiens, UniProt O14920)
T1 sequence (O14920 1-756): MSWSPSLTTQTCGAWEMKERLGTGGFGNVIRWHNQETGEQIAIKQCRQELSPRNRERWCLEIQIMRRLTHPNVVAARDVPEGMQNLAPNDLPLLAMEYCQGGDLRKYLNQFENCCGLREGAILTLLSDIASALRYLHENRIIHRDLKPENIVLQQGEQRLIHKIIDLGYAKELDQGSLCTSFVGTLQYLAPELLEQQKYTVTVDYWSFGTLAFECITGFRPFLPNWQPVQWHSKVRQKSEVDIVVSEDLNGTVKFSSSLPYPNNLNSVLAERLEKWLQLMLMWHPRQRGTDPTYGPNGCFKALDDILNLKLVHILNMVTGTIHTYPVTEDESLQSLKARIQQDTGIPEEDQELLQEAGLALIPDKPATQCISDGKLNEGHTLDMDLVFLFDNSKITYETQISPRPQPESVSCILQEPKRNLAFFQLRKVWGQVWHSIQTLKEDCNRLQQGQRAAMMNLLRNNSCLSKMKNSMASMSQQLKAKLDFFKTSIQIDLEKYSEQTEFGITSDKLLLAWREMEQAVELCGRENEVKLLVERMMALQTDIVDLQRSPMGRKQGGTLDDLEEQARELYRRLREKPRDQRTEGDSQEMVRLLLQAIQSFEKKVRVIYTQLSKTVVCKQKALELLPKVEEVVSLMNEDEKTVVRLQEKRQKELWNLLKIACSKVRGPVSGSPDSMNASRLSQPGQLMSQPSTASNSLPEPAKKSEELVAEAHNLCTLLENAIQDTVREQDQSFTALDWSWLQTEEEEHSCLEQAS

NLK(h) = molecular target: T2, NLK(h) (Homo sapiens, UniProt Q9UBE8)
T2 sequence (Q9UBE8 1-527): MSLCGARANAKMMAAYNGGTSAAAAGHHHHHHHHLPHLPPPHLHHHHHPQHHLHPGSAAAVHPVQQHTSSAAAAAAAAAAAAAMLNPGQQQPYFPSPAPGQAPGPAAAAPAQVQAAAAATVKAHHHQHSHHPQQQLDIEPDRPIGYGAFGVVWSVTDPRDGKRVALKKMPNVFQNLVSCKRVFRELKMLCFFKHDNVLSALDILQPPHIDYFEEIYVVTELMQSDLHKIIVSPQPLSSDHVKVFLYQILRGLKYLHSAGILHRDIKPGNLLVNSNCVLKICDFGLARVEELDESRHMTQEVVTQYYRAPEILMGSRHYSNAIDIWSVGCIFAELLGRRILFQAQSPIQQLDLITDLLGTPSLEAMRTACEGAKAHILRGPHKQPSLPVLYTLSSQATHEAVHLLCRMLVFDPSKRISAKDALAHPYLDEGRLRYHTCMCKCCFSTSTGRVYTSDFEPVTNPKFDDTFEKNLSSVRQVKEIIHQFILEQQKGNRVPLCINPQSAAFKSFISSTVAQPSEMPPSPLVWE

MST2(h) = molecular target: T3, MST2(h) (Homo sapiens, UniProt Q13188)
T3 sequence (Q13188 1-491): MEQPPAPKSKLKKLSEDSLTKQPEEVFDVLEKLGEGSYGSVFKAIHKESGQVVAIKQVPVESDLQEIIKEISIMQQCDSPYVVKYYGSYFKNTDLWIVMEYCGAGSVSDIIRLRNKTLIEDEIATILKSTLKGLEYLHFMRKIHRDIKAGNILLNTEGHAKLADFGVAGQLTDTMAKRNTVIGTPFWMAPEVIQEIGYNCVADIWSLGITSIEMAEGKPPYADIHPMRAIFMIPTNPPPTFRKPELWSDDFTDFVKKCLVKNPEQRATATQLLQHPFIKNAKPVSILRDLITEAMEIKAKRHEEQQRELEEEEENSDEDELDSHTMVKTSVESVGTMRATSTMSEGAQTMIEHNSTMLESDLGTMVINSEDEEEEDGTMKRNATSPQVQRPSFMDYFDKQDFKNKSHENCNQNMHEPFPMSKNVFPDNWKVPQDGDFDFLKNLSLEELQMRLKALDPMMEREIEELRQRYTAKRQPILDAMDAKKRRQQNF

NEK3(h) = molecular target: T4, NEK3(h) (Homo sapiens, UniProt P51956)
T4 sequence (P51956 1-506): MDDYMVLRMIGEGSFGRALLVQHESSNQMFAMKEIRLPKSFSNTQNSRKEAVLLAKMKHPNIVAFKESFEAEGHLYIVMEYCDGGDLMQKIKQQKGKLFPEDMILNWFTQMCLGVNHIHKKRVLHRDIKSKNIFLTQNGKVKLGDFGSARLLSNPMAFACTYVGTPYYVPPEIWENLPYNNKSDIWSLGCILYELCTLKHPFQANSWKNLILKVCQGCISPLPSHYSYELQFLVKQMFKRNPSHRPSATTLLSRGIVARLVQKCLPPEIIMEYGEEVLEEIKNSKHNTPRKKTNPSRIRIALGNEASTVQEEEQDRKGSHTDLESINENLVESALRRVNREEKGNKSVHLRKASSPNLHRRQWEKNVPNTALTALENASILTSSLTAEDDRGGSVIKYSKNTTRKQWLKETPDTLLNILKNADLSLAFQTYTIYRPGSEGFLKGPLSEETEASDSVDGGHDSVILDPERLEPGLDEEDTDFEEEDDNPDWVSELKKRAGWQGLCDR

| Sequence | % activity (cKit(h)) [%] | % activity (IKKβ(h)) [%] | % activity (NLK(h)) [%] | % activity (MST2(h)) [%] | % activity (NEK3(h)) [%] |
| --- | --- | --- | --- | --- | --- |
| FAKLAARLYRKALARQLGVAA [MMI-0300] | 53 | 84 | 87 | 19 | 92 |
| YARAAARQARAKALNRQLGVA [MMI-0200] | 110 | – | – | – | 100 |
| KAFAKLAARLYRKALARQLGVAA [MMI-0400] | 43 | 84 | 90 | 11 | 85 |
| HRRIKAWLKKIKALARQLGVAA [MMI-0500] | 45 | 71 | 19 | 2 | 20 |
